Source: patent publication US20210047435A1 (Janssen / Centocor, published 2021)

Molecular target: T1, LTBR (form used for the KD not stated) (human, UniProt P36941 31-227, limits assumed)
T1 construct: neither the method nor the LTBR construct is described; also called human LTBR; TNFRSF3
Assay: method not stated; stapled scFv variant against LTBR

T1 sequence (P36941 31-227 limits assumed): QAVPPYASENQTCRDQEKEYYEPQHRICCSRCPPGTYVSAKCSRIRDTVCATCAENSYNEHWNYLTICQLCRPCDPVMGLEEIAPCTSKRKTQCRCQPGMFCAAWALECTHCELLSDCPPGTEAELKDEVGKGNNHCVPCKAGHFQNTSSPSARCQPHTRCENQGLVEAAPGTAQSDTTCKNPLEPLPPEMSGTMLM

Binder | Kd [nM]
stapled scFv (VL3 Y36F S49Y F87Y) BHA10 (VH-VL) (scFv) scFv: QVQLVQSGAEVKKPGSSVKVSCKASGYTFTTYYLHWVRQAPGCGLEWMGWIYPGNVHAQYNEKFKGRVTITADKSTSTAYMELSSLRSEDTAVYYCARSWEGFPYWGQGTTVTVSSGGGSGGGSGCPPCGGGGDIQMTQSPSSLSASVGDRVTITCKASQNVGINVAWFQQKPGKAPKSLIYSASYRYSGVPSRFSGSGSGTDFTLTISSLQPEDFATYYCQQYDTYPFTFGCGTKVEIK | ~60
stapled scFv (VH CDR1 Y33A) BHA10 (VH-VL) (scFv) scFv: QVQLVQSGAEVKKPGSSVKVSCKASGYTFTTYALHWVRQAPGCGLEWMGWIYPGNVHAQYNEKFKGRVTITADKSTSTAYMELSSLRSEDTAVYYCARSWEGFPYWGQGTTVTVSSGGGSGGGSGCPPCGGGGDIQMTQSPSSLSASVGDRVTITCKASQNVGINVAWYQQKPGKAPKSLISSASYRYSGVPSRFSGSGSGTDFTLTISSLQPEDFATYFCQQYDTYPFTFGCGTKVEIK | ~600
